For one assay, the target named is HLA-B*15:17. Nature of the assay: IEDB peptide-MHC binding, purified MHC/direct/fluorescence; filed as Kd, often an IC50 or EC50 that approximates it; ≥ and ≤ were set here for values at or beyond the usual limits of such assays.
The target in assay [1] is HLA-B*57:01. The description is as above.
Assay [2] has as its target HLA-A*02:01. Nature of the assay: IEDB peptide-MHC binding, purified MHC/competitive/radioactivity; filed as Kd, often an IC50 or EC50 that approximates it; ≥ and ≤ were set here for values at or beyond the usual limits of such assays.
The next assay concerns the target HLA-A*02:06. The description is as above.
The target in a further assay is HLA-A*02:17. The assay is described as above.
The target of a further assay is HLA-B*08:01. The assay is described as above.
A further assay concerns the target HLA-A*02:03. The assay is described as above.
Another assay deals with HLA-B*15:01. Described as above. The conditions noted are these: source organism: Dengue virus 2 Peru/IQT2913/1996.
Assay [3] has as its target HLA-B*57:01. Described as above.
Another assay concerns the target HLA-A*11:01. Nature of the assay: IEDB peptide-MHC binding, purified MHC/competitive/fluorescence; ≥ and ≤ were set here for values at or beyond the usual limits of such assays.
In a further assay the target is HLA-A*24:02. The description is as above.
Another assay deals with HLA-B*48:01. Nature of the assay: IEDB peptide-MHC binding, purified MHC/direct/fluorescence; filed as Kd, often an IC50 or EC50 that approximates it; ≥ and ≤ were set here for values at or beyond the usual limits of such assays. The following applies: source organism: Dengue virus.
The target in assay [4] is HLA-B*58:01. Kind of assay: IEDB peptide-MHC binding, purified MHC/competitive/radioactivity; filed as Kd, often an IC50 or EC50 that approximates it; ≥ and ≤ were set here for values at or beyond the usual limits of such assays.
The target of another assay is HLA-A*01:01. The description is as above. The following applies: source organism: Dengue virus 2 Jamaica/1409/1983.
The target of another assay is HLA-A*30:02. Described as above. The conditions noted are these: source organism: Dengue virus 2 Jamaica/1409/1983.
The target of a further assay is HLA-A*32:01. Described as above. The following applies: source organism: Dengue virus 3 Martinique/1243/1999.
Assay [5] concerns the target HLA-A*02:01. Kind of assay: IEDB peptide-MHC binding, purified MHC/competitive/fluorescence; ≥ and ≤ were set here for values at or beyond the usual limits of such assays. The following applies: source organism: Zaire ebolavirus.
The next assay concerns the target HLA-A*68:02. Nature of the assay: IEDB peptide-MHC binding, purified MHC/competitive/fluorescence; filed as Kd, often an IC50 or EC50 that approximates it; ≥ and ≤ were set here for values at or beyond the usual limits of such assays. The following applies: source organism: Bacillus anthracis str. A0488.
The target in assay [6] is HLA-A*02:01. Nature of the assay: IEDB peptide-MHC binding, purified MHC/direct/fluorescence; filed as Kd, often an IC50 or EC50 that approximates it; ≥ and ≤ were set here for values at or beyond the usual limits of such assays. The following applies: source organism: Orthohantavirus hantanense.
A further assay addresses HLA-A*02:12. Described as above. The conditions noted are these: source organism: Hantaanvirus CGRn93P8.
The target of a further assay is HLA-A*02:11. Described as above. The conditions noted are these: source organism: Hantaanvirus CGRn93P8.
A further assay has as its target HLA-A*02:19. The description is as above. The conditions noted are these: source organism: Hantaanvirus CGRn93P8.
Assay [7] has as its target HLA-B*58:01. The assay is described as above. The conditions noted are these: source organism: Vibrio parahaemolyticus.
The mark [8] stands for this setting: source organism: Yellow fever virus.
[9] abbreviates: source organism: Dengue virus 3 China/80-2/1980.
Setting [10] is: source organism: Dengue virus 3 Martinique/1243/1999.
The mark [11] stands for this setting: source organism: Dengue virus 1 Singapore/S275/1990.
Where [12] appears, read: source organism: Dengue virus 1 Brazil/97-11/1997.
Setting [13] is: source organism: Dengue virus 2 Thailand/NGS-C/1944.
[14] abbreviates: source organism: Dengue virus 2 Peru/IQT2913/1996.
[15] abbreviates: source organism: Dengue virus 4 Philippines/H241/1956.
[16] abbreviates: source organism: Vaccinia virus.
Setting [17] is: source organism: Dengue virus 2 Jamaica/1409/1983.
[18] abbreviates: source organism: Zaire ebolavirus.
Setting [19] is: source organism: Dengue virus 3 Singapore/8120/1995.
Where [20] appears, read: source organism: Vibrio parahaemolyticus.
Where [21] appears, read: source organism: Pan troglodytes.

Broadly, the Kd is a measure of binding affinity in units of concentration. In general, IC50 refers to the concentration needed to halve the response being measured. A low value points to greater potency in that assay.

With LAVMGDAAW, the equilibrium dissociation constant (Kd) was determined as 0.027 µM with HLA-B*15:17 (setting [8]) and 0.0355 µM with HLA-B*57:01 [1] (setting [8]).
In the case of LLLMRTSWAL, the Kd with HLA-A*02:01 [2] (setting [9]) came to 0.00552 µM; with HLA-A*02:06 (setting [10]), 0.0133 µM; with HLA-A*02:17 (setting [9]), 0.0153 µM; with HLA-B*08:01 (setting [10]), 0.00147 µM.
As for LLLTIGLSLV, the Kd with HLA-A*02:01 [2] (setting [11]) came out at 0.00391 µM; with HLA-A*02:06 (setting [12]), 0.062 µM; in the assay with HLA-A*02:17 (setting [11]), 2.62 µM; in the assay with HLA-A*02:03 (setting [12]), 0.0146 µM.
Consider LMMTTIGIVL, for which the Kd with HLA-A*02:01 [2] (setting [13]) came to 0.0289 µM; in the assay with HLA-A*02:06 (setting [14]), 0.0308 µM; with HLA-A*02:17 (setting [13]), 1.19 µM; in the assay with HLA-B*08:01 (setting [14]) it was 5.9 µM; in the assay with HLA-B*15:01 it was 0.0217 µM.
On to LTSLGKAVHQ, for which the Kd in the assay with HLA-B*57:01 [3] (setting [15]) is at least 70.4 µM.
As for NVTTQSIHE, the concentration for half-maximal inhibition (IC50) in the assay with HLA-A*11:01 (setting [16]) was at least 148 µM.
For the sequence PYEGGKVFA, the values for the concentration for half-maximal inhibition (IC50) with HLA-A*11:01 (setting [16]) and with HLA-A*24:02 (setting [16]) were at least 118 µM and 13.9 µM, respectively.
In the case of RRDKRSVAL, the dissociation constant (Kd) in the assay with HLA-B*48:01 was determined as 0.153 µM.
Turning to RSLIGNEEY, the Kd in the assay with HLA-B*58:01 [4] (setting [17]) is 0.0272 µM; with HLA-A*01:01, 6.72 µM; with HLA-A*30:02 it was at least 30.1 µM.
In the case of RSVALVPHV, the Kd in the assay with HLA-B*58:01 [4] (setting [17]) came out at 0.00881 µM.
In the assay with HLA-A*11:01 (setting [18]), SIPLGVIHN gave a half-inhibitory concentration (IC50) of at least 158 µM.
On to SLSMTCIAV, for which the figures for the Kd in the assay with HLA-A*02:01 [2] (setting [11]), in the assay with HLA-A*02:17 (setting [11]) and in the assay with HLA-A*02:03 (setting [12]) were 0.0134 µM, 0.0491 µM and 0.124 µM, respectively.
On to SMAMTCIAV, for which the Kd is 0.0119 µM with HLA-A*02:01 [2] (setting [15]), 0.074 µM in the assay with HLA-A*02:17 (setting [15]) and 0.00407 µM with HLA-A*02:03 (setting [15]).
Consider SMINGVVKL, for which the dissociation constant Kd in the assay with HLA-A*32:01 is 1.49 µM; with HLA-A*02:17 (setting [9]), 0.425 µM; in the assay with HLA-A*02:03 (setting [10]) it was 0.0184 µM.
For SSGYYSTTI, the concentration for half-maximal inhibition (IC50) came out at 33.8 µM in the assay with HLA-A*11:01 (setting [18]), 65.2 µM in the assay with HLA-A*02:01 [5] and 2.14 µM with HLA-A*24:02 (setting [18]).
As to SSIIKTFVV, the dissociation constant (Kd) with HLA-A*68:02 was 0.0179 µM.
For TLAQSLIDV, the Kd was at most 0.001 µM in the assay with HLA-A*02:01 [6], 0.004 µM with HLA-A*02:12, 0.002 µM with HLA-A*02:11 and 0.006 µM in the assay with HLA-A*02:19.
For TLMAMDLGEL, the Kd in the assay with HLA-A*02:01 [2] (setting [13]) was determined as 0.0145 µM; in the assay with HLA-A*02:17 (setting [13]) it was 0.273 µM; in the assay with HLA-A*02:03 (setting [14]), 0.00836 µM.
For the sequence TLTAAVLLLV, the values for the Kd with HLA-A*02:17 (setting [19]) and in the assay with HLA-A*02:03 (setting [19]) were 0.219 µM and 0.00574 µM, respectively.
In the case of TVIPFYFVW, the Kd with HLA-B*58:01 [7] stood at 0.0413 µM; in the assay with HLA-B*15:17 (setting [20]), 0.0068 µM; in the assay with HLA-B*57:01 [1] (setting [20]), 0.275 µM.
Consider VASEMAEALK, for which the equilibrium dissociation constant (Kd) with HLA-B*58:01 [4] (setting [12]) is at least 10 µM.
In the assay with HLA-A*11:01 (setting [16]), VGVVVSTNR returned a concentration for half-maximal inhibition (IC50) of 21.5 µM.
For the sequence VIASSGMLW, the Kd with HLA-B*58:01 [4] (setting [10]) worked out at 0.056 µM.
Consider VTRLENLMW, for which the Kd with HLA-B*57:01 [3] (setting [17]) was 0.00379 µM.
Regarding WMSSEGAWKH, the dissociation constant Kd in the assay with HLA-B*58:01 [4] (setting [17]) was found to be 0.215 µM.
Take YRAVVPLVY: the dissociation constant Kd stood at 1.5 µM with HLA-B*58:01 [4] (setting [21]) and 12.6 µM in the assay with HLA-B*57:01 [3] (setting [21]).

For the origin of these results see the Immune Epitope Database (IEDB).
